Assay in all cases: cell-based or functional assay
The target of test [1] is CadC-artTM-GCN4 (E. coli) (UniProt P23890).
The target of another test is DsRed (UniProt Q9U6Y8).
The target of a further test is CadC-wtTM-GCN4 (E. coli) (UniProt P23890).

Sequence of DsRed (Q9U6Y8 whole entry): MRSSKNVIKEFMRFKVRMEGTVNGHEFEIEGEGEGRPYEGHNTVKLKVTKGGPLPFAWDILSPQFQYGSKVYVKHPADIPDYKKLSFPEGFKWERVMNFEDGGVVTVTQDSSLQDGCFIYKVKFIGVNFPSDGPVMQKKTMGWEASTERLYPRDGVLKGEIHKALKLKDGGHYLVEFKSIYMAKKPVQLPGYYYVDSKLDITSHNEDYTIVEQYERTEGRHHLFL

“CadC-artTM-GCN4 (from UniProt P23890 1-154; P03069 253-274)” came in with a fold change in GFP expression compared to the construct without GCN4 (pCadBA-GFP reporter, E. coli, flow cytometry) in test [1] of 300 fold.

On to “LexA-DBD-Lam4 (from UniProt P0A7C2 1-87)”, for which, in the test with DsRed, the deGFP signal strength with DsRed in the medium (cell-free system, pLexA-deGFP reporter 300 ng/reaction, LexA-Lam4 plasmid 800 ng/reaction) is 4850 a.u; the deGFP signal strength without DsRed in the medium (baseline; cell-free system, pLexA-deGFP reporter 300 ng/reaction, LexA-Lam4 plasmid 800 ng/reaction) stood at 41400 a.u; the ratio of deGFP signal strength without and with DsRed (cell-free system, pLexA-deGFP reporter 300 ng/reaction, LexA-Lam4 plasmid 800 ng/reaction) was 8.5.

“CadC-wtTM-GCN4 (from UniProt P23890 1-187; P03069 253-274)” displayed a fold change in GFP expression compared to the construct without GCN4 (pCadBA-GFP reporter, E. coli, flow cytometry) with CadC-wtTM-GCN4 (E. coli) of 50 fold.

(Values after US20200096507A1.)
